Reference: US20210292396A1

Tests used:
Assay in all cases: cell-based or functional assay
[1] = target: Env of HIV isolate X1193.c1 (clade G) (HIV)
[2] = target: HIV Env of isolate 288.38 (HIV)
[3] = target: HIV Env of isolate R1166.c1 (HIV)
[4] = target: Env of HIV isolate BX08.16 (clade B) (HIV)
[5] = target: Env of HIV isolate 25711-2.4 (clade C) (HIV)
[6] = target: Env of HIV isolate T250-4 (clade AG) (HIV)
[7] = target: Env of HIV isolate CAP45.G3 (clade C) (HIV)
[8] = target: Env of HIV isolate DU172.17 (clade C) (HIV)
[9] = target: Env of HIV isolate CH117.4 (clade BC) (HIV)
[10] = target: HIV Env of isolate T278-50 (HIV)
[11] = target: Env of HIV isolate BJOX002000.03.2 (clade BC) (HIV)
[12] = target: HIV Env of isolate CNE53 (HIV)
[13] = target: HIV Env of isolate TH966.8 (HIV)
[14] = target: HIV Env of isolate 001428-2.42 (HIV)
[15] = target: Env of HIV isolate C2101.c1 (clade AE) (HIV)
[16] = target: Env of HIV isolate 6471.v1.c16 (clade C) (HIV)
[17] = target: Env of HIV isolate CNE8 (clade AE) (HIV)
[18] = target: Env of HIV isolate 0330.v4.c3 (clade A) (HIV)
[19] = target: HIV Env of isolate Bal.01 (HIV)
[20] = target: Envelope protein of SIVmac251.30.SG3 (clade NA)
[21] = target: HIV Env of isolate BB539.2B13 (HIV)
[22] = target: Env of HIV isolate 3817.v2.c59 (clade CD) (HIV)
[23] = target: HIV Env of isolate Q259.17 (HIV)
[24] = target: Env of HIV isolate SC422.8 (clade B) (HIV)
[25] = target: Env of HIV isolate RW020.2 (clade A) (HIV)
[26] = target: Env of HIV isolate R3265.c6 (clade AE) (HIV)
[27] = target: Env of HIV isolate DU156.12 (clade C) (HIV)
[28] = target: HIV Env of isolate 620345.c1 (HIV)
[29] = target: Env of HIV isolate 3873.v1.c24 (clade C) (HIV)
[30] = target: Env of HIV isolate BJOX010000.06.2 (clade AE) (HIV)
[31] = target: HIV Env of isolate 5768.04 (HIV)
[32] = target: HIV Env of isolate 89.6.DG (HIV)
[33] = target: Env of HIV isolate ZM55.28a (clade C) (HIV)
[34] = target: HIV Env of isolate CNE58 (HIV)
[35] = target: Env of HIV isolate T253-11 (clade AG) (HIV)
[36] = target: Env of HIV isolate 001428-2.42 (clade C) (HIV)
[37] = target: Env of HIV isolate 00836-2.5 (clade C) (HIV)
[38] = target: Env of HIV isolate T255-34 (clade AG) (HIV)
[39] = target: Env of HIV isolate 6322.v4.c1 (clade C) (HIV)
[40] = target: HIV Env of isolate BG505.W6M.C2 (HIV)
[41] = target: HIV Env of isolate 3817.v2.c59 (HIV)
[42] = target: HIV Env of isolate CNE30 (HIV)
[43] = target: HIV Env of isolate CH181.12 (HIV)
[44] = target: HIV Env of isolate MN.3 (HIV)
[45] = target: HIV Env of isolate 3718.v3.c11 (HIV)
[46] = target: Env of HIV isolate BB201.B42 (clade A) (HIV)
[47] = target: HIV Env of isolate HXB2.DG (HIV) (UniProt P04578)
[48] = target: HIV Env of isolate CE703010217.B6 (HIV)
[49] = target: Env of HIV isolate PVO.04 (clade B) (HIV)
[50] = target: HIV Env of isolate BJOX002000.03.2 (HIV)
Env of SIVmac251.30.SG3 = target: Env of SIVmac251.30.SG3
[51] = target: Env of HIV isolate CNE31 (clade C) (HIV)

Substance: PGT121 (antibody)
- IC50, pseudovirus neutralization [1]: 0.0457 µg/mL
- IC80, pseudovirus neutralization [2]: 0.0443 µg/mL
- IC80 [3]: > 50 µg/mL
- IC50, pseudovirus neutralization [4]: 0.00933 µg/mL
- IC50, pseudovirus neutralization [5]: 0.0173 µg/mL
- IC50, pseudovirus neutralization [6]: 0.00433 µg/mL
- IC50, pseudovirus neutralization [7]: 0.866 µg/mL
- IC50, pseudovirus neutralization [8]: 0.065 µg/mL
- IC50, pseudovirus neutralization [9]: > 50 µg/mL
- IC80 [10]: > 50 µg/mL
- IC50, pseudovirus neutralization [11]: 0.026 µg/mL
- IC80, pseudovirus neutralization [12]: 0.0723 µg/mL
- IC80 [13]: > 50 µg/mL
- IC80, pseudovirus neutralization [14]: 0.108 µg/mL
- IC50, pseudovirus neutralization [15]: > 50 µg/mL
- IC50, pseudovirus neutralization [16]: > 50 µg/mL
- IC50, pseudovirus neutralization [17]: > 50 µg/mL
- IC50, pseudovirus neutralization [18]: 0.0597 µg/mL
- IC80 [19]: 0.0277 µg/mL
- IC50, pseudovirus neutralization [20]: > 50 µg/mL
- IC80 [21]: > 50 µg/mL
- IC50, pseudovirus neutralization [22]: 22.2 µg/mL
- IC80 [23]: > 50 µg/mL
- IC50, pseudovirus neutralization [24]: 0.115 µg/mL
- IC50, pseudovirus neutralization [25]: 0.01 µg/mL
- IC50, pseudovirus neutralization [26]: > 50 µg/mL
- IC50, pseudovirus neutralization [27]: 0.0147 µg/mL
- IC80 [28]: > 50 µg/mL
- IC50, pseudovirus neutralization [29]: 0.045 µg/mL
- IC50, pseudovirus neutralization [30]: > 50 µg/mL
- IC80 [31]: 0.917 µg/mL
- IC80 [32]: 0.0783 µg/mL
- IC50, pseudovirus neutralization [33]: 0.0807 µg/mL
- IC80, pseudovirus neutralization [34]: > 50 µg/mL
- IC50, pseudovirus neutralization [35]: > 50 µg/mL
- IC50, pseudovirus neutralization [36]: 0.0337 µg/mL
- IC50, pseudovirus neutralization [37]: > 50 µg/mL
- IC50, pseudovirus neutralization [38]: 2.04 µg/mL
- IC50, pseudovirus neutralization [39]: > 50 µg/mL
- IC80 [40]: 0.165 µg/mL
- IC80, pseudovirus neutralization [41]: > 50 µg/mL
- IC80, pseudovirus neutralization [42]: 0.296 µg/mL
- IC80, pseudovirus neutralization [43]: 0.083 µg/mL
- IC80 [44]: > 50 µg/mL
- IC80 [45]: 4.76 µg/mL
- IC50, pseudovirus neutralization [46]: 0.00933 µg/mL
- IC80 [47]: > 50 µg/mL
- IC80, pseudovirus neutralization [48]: 0.0173 µg/mL
- IC50, pseudovirus neutralization [49]: 0.189 µg/mL
- IC80 [50]: 0.068 µg/mL
- IC80, pseudovirus neutralization (Env of SIVmac251.30.SG3): > 50 µg/mL
- IC50, pseudovirus neutralization [51]: 0.654 µg/mL
